Source: patent US20230364254A1, “METHODS FOR TREATING CANCERS WITH ANTIBODY DRUG CONJUGATES (ADC) THAT BIND TO 191P4D12 PROTEINS” (priority 2020, published 2023)

Test system: patients with locally advanced or metastatic urothelial cancer
Experiment: Same phase 2 study: safety (adverse events, NCI CTCAE v4.03)
Assay type: in vivo, human
Conditions: Cohort 2 (N = 89)
Excerpt: Safety assessments will be based on the information collected through the safety surveillance process and will include the data from recorded adverse events (AEs) including SAEs, recording of concomitant medication, physical examination findings, cardiac monitoring, and laboratory tests.
The assessment of safety during the course of this study will consist of the surveillance and recording of AEs including SAEs, recording of concomitant medication, and measurements of protocol-specified physical examination findings, cardiac monitoring, and laboratory tests.
AE severity should be graded using the National Cancer Institute's Common Terminology Criteria for Adverse Events (NCI CTCAE), Version 4.03. These criteria are provided in the study manual.
An overview of AEs will provide a tabulation of the incidence of all AEs, treatment-emergent AEs, treatment-related AEs, Grade 3 and higher AEs. SAEs, treatment-related SAEs, deaths, and AEs leading to study treatment discontinuation. Adverse events will be defined as treatment emergent if they are newly occurring or worsened following study treatment.
AEs will be classified by system organ class and preferred tem using the Medical Dictionary for Regulatory Activities (MedDRA) and graded using NCI CTCAE, Version 4.03.
The incidence of AEs will be summarized by system organ class, preferred term, severity and relationship to study drug. In the event of multiple occurrences of the same AE in one patient, the AE will be counted once as the occurrence for the maximum grade. AEs leading to premature discontinuation of study drug will be summarized and listed in the same manner.

In the case of “enfortumab vedotin: Nectin-4 directed ADC: fully human anti-nectin-4 IgG1 kappa antibody (AGS-22C3) conjugated to MMAE via protease-cleavable maleimidocaproyl valine-citrulline linker”, the “AE of special interest, All Grade: Ocular Events, Blurred Vision” value is reported as 9 (10.1) N (%), the “AE of special interest, All Grade: Ocular Events, Corneal Disorders” value is reported as 5 (5.6) N (%) and the “AE of special interest, All Grade: Ocular Events, Dry Eye Disorders” value is reported as 27 (30.3) N (%). The “AE of special interest, All Grade: Peripheral Neuropathy” value was 51 (58.4) N (%), the “AE of special interest, All Grade: Rash” value was 59 (66.3) N (%) and the “AE of special interest, ≥Gr 3: Hyperglycemia” value was 8 (9) N (%). For the same substance, the “AE of special interest, ≥Gr 3: IRR” value was 1 (1.1) N (%), the “AE of special interest, ≥Gr 3: Peripheral Neuropathy” value was 7 (7.9) N (%) and the “AE of special interest, ≥Gr 3: Rash” value was 15 (16.9) N (%). The “Any TEAEs” value was 89 (100.0) n (%), the “Any TEAEs leading to death” value was 8 (9.0) n (%) and the “Any TEAEs leading to treatment discontinuation” value was 18 (20.2) n (%). The “Any grade 3-5 TEAEs” value was 62 (69.7) n (%), the “Any serious TEAEs” value was 35 (39.3) n (%) and the “SAEs (All): Acute kidney injury” value was 9 (10.1) n (%). The “SAEs (All): Diarrhoea” value was 3 (3.4) n (%), the “SAEs (All): Febrile neutropenia” value was 1 (1.1) n (%) and the “SAEs (All): Nausea” value was 2 (2.2) n (%). For the same substance, the “SAEs (All): Overall” value was 35 (39.3) n (%), the “SAEs (All): Pneumonia” value was 3 (3.4) n (%) and the “SAEs (All): Sepsis” value was 4 (4.5) n (%). The “SAEs (All): Urinary tract infection” value was 3 (3.4) n (%), the “SAEs (Related): Acute kidney injury” value was 3 (3.4) n (%) and the “SAEs (Related): Diarrhoea” value was 2 (2.2) n (%). The “SAEs (Related): Febrile neutropenia” value was 1 (1.1) n (%), the “SAEs (Related): Nausea” value was 1 (1.1) n (%) and the “SAEs (Related): Overall” value was 15 (16.9) n (%). The “SAEs (Related): Pneumonia” value was 1 (1.1) n (%), the “Treatment-related AE leading to discontinuation: Acute kidney injury” value was 2 (2.2) n (%) and the “Treatment-related AE leading to discontinuation: Dermatitis bullous” value was 1 (1.1) n (%). For the same substance, the “Treatment-related AE leading to discontinuation: Lipase increased” value was 2 (2.2) n (%), the “Treatment-related AE leading to discontinuation: Metabolic acidosis” value was 1 (1.1) n (%) and the “Treatment-related AE leading to discontinuation: Multiple organ dysfunction syndrome” value was 1 (1.1) n (%). For the same substance, the “Treatment-related AE leading to discontinuation: Muscular weakness” value was 1 (1.1) n (%), the “Treatment-related AE leading to discontinuation: Overall” value was 14 (15.7) n (%) and the “Treatment-related AE leading to discontinuation: Peripheral motor neuropathy” value was 1 (1.1) n (%). For the same substance, the “Treatment-related AE leading to discontinuation: Peripheral sensory neuropathy” value was 4 (4.5) n (%), the “Treatment-related AE leading to discontinuation: Pneumonitis” value was 1 (1.1) n (%) and the “Treatment-related TEAEs” value was 86 (96.6) n (%). The “Treatment-related TEAEs (all grades): Alopecia” value was 45 (50.6) n (%), the “Treatment-related TEAEs (all grades): Anaemia” value was 22 (24.7) n (%) and the “Treatment-related TEAEs (all grades): Aspartate aminotransferase increased” value was 7 (7.9) n (%). The “Treatment-related TEAEs (all grades): Decreased appetite” value was 29 (32.6) n (%), the “Treatment-related TEAEs (all grades): Diarrhoea” value was 20 (22.5) n (%) and the “Treatment-related TEAEs (all grades): Dry eye” value was 11 (12.4) n (%). For the same substance, the “Treatment-related TEAEs (all grades): Dry skin” value was 16 (18.0) n (%), the “Treatment-related TEAEs (all grades): Dysgeusia” value was 24 (27.0) n (%) and the “Treatment-related TEAEs (all grades): Fatigue” value was 30 (33.7) n (%). For the same substance, the “Treatment-related TEAEs (all grades): Lacrimation increased” value was 9 (10.1) n (%), the “Treatment-related TEAEs (all grades): Nausea” value was 20 (22.5) n (%) and the “Treatment-related TEAEs (all grades): Neutropenia” value was 11 (12.4) n (%). For the same substance, the “Treatment-related TEAEs (all grades): Oedema peripheral” value was 10 (11.2) n (%), the “Treatment-related TEAEs (all grades): Overall” value was 86 (96.6) n (%) and the “Treatment-related TEAEs (all grades): Peripheral sensory neuropathy” value was 42 (47.2) n (%). For the same substance, the “Treatment-related TEAEs (all grades): Pruritus” value was 27 (30.3) n (%), the “Treatment-related TEAEs (all grades): Rash maculo-papular” value was 27 (30.3) n (%) and the “Treatment-related TEAEs (all grades): Vomiting” value was 7 (7.9) n (%). The “Treatment-related TEAEs (all grades): Weight decreased” value was 23 (25.8) n (%), the “Treatment-related TEAEs leading to death” value was 3 (3.4) n (%) and the “Treatment-related TEAEs leading to treatment discontinuation” value was 14 (15.7) n (%). For the same substance, the “Treatment-related TEAEs ≥Grade 3: Acute kidney injury” value was 4 (4.5) n (%), the “Treatment-related TEAEs ≥Grade 3: Amylase increased” value was 3 (3.4) n (%) and the “Treatment-related TEAEs ≥Grade 3: Anaemia” value was 5 (5.6) n (%). For the same substance, the “Treatment-related TEAEs ≥Grade 3: Aspartate aminotransferase increased” value was 2 (2.2) n (%), the “Treatment-related TEAEs ≥Grade 3: Decreased appetite” value was 5 (5.6) n (%) and the “Treatment-related TEAEs ≥Grade 3: Diarrhoea” value was 5 (5.6) n (%). For the same substance, the “Treatment-related TEAEs ≥Grade 3: Fatigue” value was 6 (6.7) n (%), the “Treatment-related TEAEs ≥Grade 3: Febrile neutropenia” value was 1 (1.1) n (%) and the “Treatment-related TEAEs ≥Grade 3: Hyperglycaemia” value was 5 (5.6) n (%). The “Treatment-related TEAEs ≥Grade 3: Hyponatraemia” value was 3 (3.4) n (%), the “Treatment-related TEAEs ≥Grade 3: Lipase increased” value was 5 (5.6) n (%) and the “Treatment-related TEAEs ≥Grade 3: Neutropenia” value was 8 (9.0) n (%). For the same substance, the “Treatment-related TEAEs ≥Grade 3: Neutrophil count decreased” value was 3 (3.4) n (%), the “Treatment-related TEAEs ≥Grade 3: Overall” value was 49 (55.1) n (%) and the “Treatment-related TEAEs ≥Grade 3: Peripheral sensory neuropathy” value was 3 (3.4) n (%). For the same substance, the “Treatment-related TEAEs ≥Grade 3: Pruritus” value was 3 (3.4) n (%), the “Treatment-related TEAEs ≥Grade 3: Rash erythematous” value was 2 (2.2) n (%) and the “Treatment-related TEAEs ≥Grade 3: Rash maculo-papular” value was 7 (7.9) n (%). The “Treatment-related grade 3-5 TEAEs” value was 49 (55.1) n (%), the “Treatment-related serious TEAEs” value was 15 (16.9) n (%) and the “TRAEs, Any Grade: Alopecia” value (additional 3 months follow-up) was 45 (51) n (%). For the same substance, the “TRAEs, Any Grade: Anemia” value (additional 3 months follow-up) was 22 (25) n (%), the “TRAEs, Any Grade: Decreased appetite” value (additional 3 months follow-up) was 29 (33) n (%) and the “TRAEs, Any Grade: Diarrhea” value (additional 3 months follow-up) was 20 (22) n (%). The “TRAEs, Any Grade: Dysgeusia” value (additional 3 months follow-up) was 25 (28) n (%), the “TRAEs, Any Grade: Fatigue” value (additional 3 months follow-up) was 30 (34) n (%) and the “TRAEs, Any Grade: Hyperglycemia” value (additional 3 months follow-up) was 8 (9) n (%). For the same substance, the “TRAEs, Any Grade: Lipase increased” value (additional 3 months follow-up) was 7 (8) n (%) and the “TRAEs, Any Grade: Nausea” value (additional 3 months follow-up) was 20 (22) n (%).
